pEC50, pIC50, pKd: −log10 of the molar value. Read-outs that look alike come from different tables or passages of the source.
How the values were obtained:
[1] = target: human APRIL (Examples 21-23) (human) (UniProt O75888); experiment: colorimetric ELISA, inhibition curve (450 nm against LogM of the fusion protein) for human APRIL; the partner on the plate not given
[2] = target: murine APRIL (Examples 22-23) (mouse) (UniProt Q9D777); experiment: colorimetric ELISA, inhibition curve (450 nm against logM of the fusion protein) for mouse APRIL; the partner on the plate not given
Chain of murine APRIL (Examples 22-23) (mouse) (Q9D777 96-241 limits assumed): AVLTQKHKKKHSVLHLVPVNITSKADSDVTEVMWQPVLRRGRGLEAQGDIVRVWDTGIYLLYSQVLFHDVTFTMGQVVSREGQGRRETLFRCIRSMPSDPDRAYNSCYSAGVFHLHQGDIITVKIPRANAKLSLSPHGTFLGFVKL

syndecan-1 [3] = target: T1, syndecan-1; experiment: colorimetric ELISA, binding curve (450 nm against LogM) on syndecan-1; curve rises to about 0.7 at LogM about -6.7, no plateau
T1 sequence (P18827 whole entry, species assumed, looked up): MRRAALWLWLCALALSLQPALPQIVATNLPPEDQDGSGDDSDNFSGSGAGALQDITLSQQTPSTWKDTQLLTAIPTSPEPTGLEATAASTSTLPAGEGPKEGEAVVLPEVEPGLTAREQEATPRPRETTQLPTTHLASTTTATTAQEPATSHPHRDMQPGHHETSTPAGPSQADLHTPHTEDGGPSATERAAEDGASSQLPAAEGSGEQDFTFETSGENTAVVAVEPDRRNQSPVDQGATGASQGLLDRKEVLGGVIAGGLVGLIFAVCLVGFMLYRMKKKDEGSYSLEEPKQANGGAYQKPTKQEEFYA

[4] = target: human BAFF (Examples 21-23) (human) (UniProt Q9Y275); experiment: colorimetric ELISA, inhibition curve (450 nm against LogM of the fusion protein) for human BAFF; the partner on the plate not given
[5] = target: human BAFF (Acros Biosystems) (human) (UniProt Q9Y275); experiment: cell-based or functional assay
[6] = target: human BAFF-60mer (Adipogen) (human) (UniProt Q9Y275); experiment: cell-based or functional assay
[7] = target: human APRIL (Acros Biosystems) (human) (UniProt O75888); experiment: cell-based or functional assay
Chain of human APRIL (Acros Biosystems) (human) (O75888 115-250 limits assumed): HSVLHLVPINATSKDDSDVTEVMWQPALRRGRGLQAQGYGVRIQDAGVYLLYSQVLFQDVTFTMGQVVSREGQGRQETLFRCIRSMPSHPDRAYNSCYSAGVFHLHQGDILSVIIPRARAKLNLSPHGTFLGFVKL

syndecan-2 [8] = experiment: colorimetric ELISA, binding curve (450 nm against LogM) on syndecan-2; curve rises to about 1.1 at LogM about -6.7, no plateau
Chain of syndecan-2 (P34741 whole entry, the tested form may be a part): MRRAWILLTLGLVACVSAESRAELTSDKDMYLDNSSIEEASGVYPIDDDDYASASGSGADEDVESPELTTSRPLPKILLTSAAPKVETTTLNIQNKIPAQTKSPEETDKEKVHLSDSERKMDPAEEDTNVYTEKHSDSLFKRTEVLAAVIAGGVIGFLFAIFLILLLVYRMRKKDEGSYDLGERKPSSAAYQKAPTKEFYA

[9] = target: murine BAFF (Examples 22-23) (mouse) (UniProt Q9WU72); experiment: colorimetric ELISA, inhibition curve (450 nm against logM of the fusion protein) for mouse BAFF; the partner on the plate not given
Chain of murine BAFF (Examples 22-23) (mouse) (Q9WU72 127-309 limits assumed): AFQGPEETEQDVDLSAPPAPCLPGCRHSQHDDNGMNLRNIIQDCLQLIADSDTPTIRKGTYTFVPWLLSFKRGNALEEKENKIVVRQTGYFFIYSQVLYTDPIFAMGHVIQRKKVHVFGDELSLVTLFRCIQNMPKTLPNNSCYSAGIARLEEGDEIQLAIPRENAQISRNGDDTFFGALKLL

[10] = target: human BAFF (Examples 21-23) (human) (UniProt Q9Y275); experiment: SPR (Carterra LSA, HC30M chip)
[11] = target: murine APRIL (Examples 22-23) (mouse) (UniProt Q9D777); experiment: SPR (Carterra LSA, HC30M chip)
[12] = target: murine BAFF (Examples 22-23) (mouse) (UniProt Q9WU72); experiment: SPR (Carterra LSA, HC30M chip)
[13] = target: human APRIL (Examples 21-23) (human) (UniProt O75888); experiment: SPR (Carterra LSA, HC30M chip)
[14] = target: human BAFF (Examples 21-23) (human) (UniProt Q9Y275); experiment: assay not given (Example 21)
[15] = target: human APRIL (Examples 21-23) (human) (UniProt O75888); experiment: assay not given (Example 21)
syndecan-1 [16] = target: T1, syndecan-1; experiment: colorimetric ELISA, binding curve (450 nm against LogM) on syndecan-1; curve rises to about 1.8 at LogM about -6.7, no plateau
syndecan-2 [17] = experiment: colorimetric ELISA, binding curve (450 nm against LogM) on syndecan-2; curve rises to about 2.4 at LogM about -6.7, no plateau
[18] = target: soluble huBAFF (Example 12) (human) (UniProt Q9Y275)
[19] = target: FLAG-tagged human BAFF (human) (UniProt Q9Y275); experiment: KinExA
[20] = target: FLAG-tagged recombinant human APRIL (human) (UniProt O75888); experiment: KinExA
Chain of FLAG-tagged recombinant human APRIL (human) (O75888 105-250 limits assumed): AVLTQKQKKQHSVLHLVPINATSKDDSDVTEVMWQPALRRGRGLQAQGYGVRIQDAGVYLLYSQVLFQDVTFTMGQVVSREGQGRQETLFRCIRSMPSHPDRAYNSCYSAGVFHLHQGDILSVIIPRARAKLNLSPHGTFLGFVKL

[21] = target: FLAG-tagged murine megaAPRIL (mouse) (UniProt Q9D777); experiment: BIACORE SPR
[22] = target: FLAG-tagged cynomolgous APRIL (cynomolgus monkey); experiment: BIACORE SPR
Chain of FLAG-tagged cynomolgous APRIL (cynomolgus monkey) (A0ACM8 entry or part of it limits assumed): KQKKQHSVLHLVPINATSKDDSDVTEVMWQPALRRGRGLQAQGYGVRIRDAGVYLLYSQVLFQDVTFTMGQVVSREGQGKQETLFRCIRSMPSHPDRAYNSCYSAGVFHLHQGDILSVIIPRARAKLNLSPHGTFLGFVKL

[23] = target: FLAG-tagged human BAFF (human) (UniProt Q9Y275); experiment: BIACORE SPR
[24] = target: 6HIS-tagged murine BAFF (mouse) (UniProt Q9WU72); experiment: BIACORE SPR
Chain of 6HIS-tagged murine BAFF (mouse) (Q9WU72 127-309 limits assumed): as the sequence (Q9WU72 127-309 limits assumed) above

membrane-huBAFF (human) = membrane-huBAFF (human) (UniProt Q9Y275)
[25] = target: FLAG-tagged human BAFF (human) (UniProt Q9Y275); experiment: KinExA; remark: listed apart in the source
[26] = target: FLAG-tagged cynomolgous APRIL (cynomolgus monkey); experiment: BIACORE SPR; remark: listed apart in the source
[27] = target: FLAG-tagged human BAFF (human) (UniProt Q9Y275); experiment: BIACORE SPR; remark: listed apart in the source
[28] = target: FLAG-tagged human BAFF (human) (UniProt Q9Y275); experiment: BIACORE SPR; Table 3 experiment (BAv8-10 derivative series), control run

Chain of human APRIL (Examples 21-23) (human) (O75888 105-250 limits assumed): as the sequence (O75888 105-250 limits assumed) above
Chain of RC18 (Telitacicept) (Fc fusion) (chain): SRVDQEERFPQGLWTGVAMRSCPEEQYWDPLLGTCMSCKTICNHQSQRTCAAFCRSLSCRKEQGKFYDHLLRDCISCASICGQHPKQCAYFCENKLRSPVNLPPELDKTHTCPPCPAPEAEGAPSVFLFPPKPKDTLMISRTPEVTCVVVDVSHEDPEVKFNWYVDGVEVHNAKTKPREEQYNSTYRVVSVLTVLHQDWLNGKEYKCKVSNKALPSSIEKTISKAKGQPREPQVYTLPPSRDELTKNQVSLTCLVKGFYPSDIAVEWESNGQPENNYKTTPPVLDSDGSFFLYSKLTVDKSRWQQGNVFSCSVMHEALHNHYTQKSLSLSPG

Substance | pIC50 [1] | pIC50 [2] | pIC50 [4] | IC50 for proliferation of stimulated B cells, Donor 1, BAFF + anti-IgM [5] | IC50 for proliferation of stimulated B cells, Donor 2, BAFF + anti-IgM [5] | IC50 for proliferation of stimulated B cells, Donor 3, BAFF + anti-IgM [5] | IC50 for proliferation of stimulated B cells, Donor 1, BAFF-60mer + anti-IgM [6] | IC50 for proliferation of stimulated B cells, Donor 2, BAFF-60mer + anti-IgM [6] | IC50 for proliferation of stimulated B cells, Donor 3, BAFF-60mer + anti-IgM [6] | IC50 for proliferation of stimulated B cells, Donor 1, APRIL + anti-IgM [7] | IC50 for proliferation of stimulated B cells, Donor 2, APRIL + anti-IgM [7] | IC50 for proliferation of stimulated B cells, Donor 3, APRIL + anti-IgM [7] | pIC50 [9] | pKd [10] | pKd [12] | pKd [13] | IC50 (read off the curve) (NFkappaB luciferase signal of HEK293-huBCMA reporter cells stimulated with soluble huBAFF) [18] | pKd [19] | Selectivity for huBAFF (KD APRIL/KD BAFF) [19] | fold improvement over control [19] | also measured
Atacicept (Fc fusion) | 8.44 | 6.67 | 8.17 | 0.64 nM | 0.0985 nM | 0.379 nM | 2.06 nM | 0.683 nM | 1.13 nM | 3 nM | 0.01 pM | 2.15 nM | 7.51 | 9.04 | 9.27 | 10.17 | – | – | – | – | pEC50 (syndecan-1 [3]): 6.92; pEC50 (syndecan-2 [8]): 5.27; pKd [11]: 9.89; pKd [14]: 9.82; pKd [15]: 9.89
RC18 (Telitacicept) (Fc fusion) | 8.17 | 6.63 | 7.91 | 1.98 nM | 0.295 nM | 1.05 nM | 2.37 nM | 0.818 nM | 1.97 nM | 2.51 nM | 573 pM | 4.14 nM | 7.41 | 9.21 | 11.64 | 10.09 | – | – | – | – | pEC50 (syndecan-1 [16]): 6.80; pEC50 (syndecan-2 [17]): 7.15
Z-TACI-Ig fusion protein (from UniProt O14836 30-110) (Fc fusion) | – | – | – | – | – | – | – | – | – | – | – | – | – | – | – | – | 5 nM | 9.82 | 0.9 | 1.5 fold | pKd [20]: 9.88; Selectivity for huAPRIL (KD BAFF/KD APRIL) [20]: 1.15; fold improvement over control [20]: 0.001 fold; pKd [21]: 9.38; pKd [22]: 8.92; fold improvement KD vs control [22]: 0.01 fold; pKd [23]: 10.13; fold improvement KD vs control [23]: 1.6 fold; pKd [24]: 9.64; IC50 (read off the curve) (NFkappaB luciferase signal of HEK293-huBCMA reporter cells stimulated with HEK-293 cells expressing membrane huBAFF) (membrane-huBAFF (human)): 5 nM
[S40G]huBCMA ECD-Ig fusion protein (from UniProt Q02223 5-54) (Fc fusion) | – | – | – | – | – | – | – | – | – | – | – | – | – | – | – | – | 2 nM | 9.65 | 0.0007 | 1 fold | pKd [20]: 12.80; Selectivity for huAPRIL (KD BAFF/KD APRIL) [20]: 1420; fold improvement over control [20]: 1 fold; pKd [25]: 9.65; pKd [21]: 10.67; pKd [22]: 10.82; fold improvement KD vs control [22]: 1 fold; pKd [23]: 9.92; fold improvement KD vs control [23]: 1 fold; pKd [24]: 10.17; pKd [26]: 10.24; fold improvement over control [26]: 1 fold; fold improvement over control [27]: 1 fold; pKd [28]: 9.76

— patent publication US20250042970A1
